For this assay, the target named is histidine kinase UzcS (Caulobacter crescentus NA1000). The assay is described as follows: cell-based or functional assay.

In patent US12571058 one finds fold decrease in U detection limit of UzcRS (reporter fluorescence with and without UzcY, FIG. 12) data, which are given here for 1 substance.

Chain of histidine kinase UzcS (Caulobacter crescentus NA1000) (chain, as listed by the source limits assumed, form in doubt): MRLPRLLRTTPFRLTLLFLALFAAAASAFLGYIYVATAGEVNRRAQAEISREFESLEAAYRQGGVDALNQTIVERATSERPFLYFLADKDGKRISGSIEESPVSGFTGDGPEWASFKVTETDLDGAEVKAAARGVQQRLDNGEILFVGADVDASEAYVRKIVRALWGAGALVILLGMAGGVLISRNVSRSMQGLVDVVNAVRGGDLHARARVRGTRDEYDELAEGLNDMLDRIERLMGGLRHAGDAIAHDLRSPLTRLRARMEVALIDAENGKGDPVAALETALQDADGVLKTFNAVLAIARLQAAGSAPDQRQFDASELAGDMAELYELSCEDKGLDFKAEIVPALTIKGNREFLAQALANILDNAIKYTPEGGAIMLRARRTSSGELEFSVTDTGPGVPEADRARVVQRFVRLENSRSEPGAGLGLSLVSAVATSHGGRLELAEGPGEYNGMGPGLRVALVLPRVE

In the case of UzcY, the fold decrease in U detection limit of UzcRS (reporter fluorescence with and without UzcY, FIG. 12) is > 4 fold.
